Reference: publication doi:10.1101/2024.07.03.601791

Target: PR20 modified with a dansyl group at the N-terminus (Dnc-PR20)
Assay: other fluorescence titration

Sequence of Kapβ2 Δloop (Q92973 9-898, stated change not applied): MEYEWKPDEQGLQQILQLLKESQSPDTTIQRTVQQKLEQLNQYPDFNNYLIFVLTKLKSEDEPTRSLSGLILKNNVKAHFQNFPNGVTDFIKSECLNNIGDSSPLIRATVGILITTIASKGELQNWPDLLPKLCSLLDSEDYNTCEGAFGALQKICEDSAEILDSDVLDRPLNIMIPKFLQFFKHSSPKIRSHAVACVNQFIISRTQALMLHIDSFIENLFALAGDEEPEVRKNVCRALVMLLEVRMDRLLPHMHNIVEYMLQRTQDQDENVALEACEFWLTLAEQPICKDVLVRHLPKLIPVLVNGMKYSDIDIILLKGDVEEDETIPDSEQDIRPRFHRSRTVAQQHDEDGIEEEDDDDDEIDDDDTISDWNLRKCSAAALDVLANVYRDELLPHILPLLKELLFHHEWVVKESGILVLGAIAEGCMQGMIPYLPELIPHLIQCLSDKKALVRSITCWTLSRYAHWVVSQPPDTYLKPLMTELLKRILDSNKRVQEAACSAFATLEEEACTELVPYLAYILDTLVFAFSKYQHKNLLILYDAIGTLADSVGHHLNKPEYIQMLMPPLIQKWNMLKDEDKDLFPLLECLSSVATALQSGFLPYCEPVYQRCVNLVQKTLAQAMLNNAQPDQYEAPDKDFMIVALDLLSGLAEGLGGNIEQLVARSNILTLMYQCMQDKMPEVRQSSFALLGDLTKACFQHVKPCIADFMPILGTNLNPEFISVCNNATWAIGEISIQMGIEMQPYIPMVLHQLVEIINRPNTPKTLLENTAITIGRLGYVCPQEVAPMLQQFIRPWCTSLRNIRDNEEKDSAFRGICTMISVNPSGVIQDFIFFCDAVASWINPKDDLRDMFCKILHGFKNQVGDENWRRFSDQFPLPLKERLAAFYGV

Kd: 310 nM
Substance: Kapβ2 Δloop (from UniProt Q92973-2 1-890) (natural protein)
